The text below walks through data of PMC12133298.

In this data set the target is Rho WT (Escherichia coli) (UniProt P0AG30). Put plainly: EMSA. As to conditions: 4 C, 1 mM ATP, 5 mM Mg2+, 25 mM Tris-Cl pH 8.0, 50 mM KCl, 5 mM MgCl2, 1 mM DTT, 37 C (or 4 C), 15 min, 0.8% agarose 0.5x TBE, 5 nM DNA. Background: Mobility shift assays separate free from complexed probe on a gel.
Sequence of Rho WT (Escherichia coli) (P0AG30 whole entry): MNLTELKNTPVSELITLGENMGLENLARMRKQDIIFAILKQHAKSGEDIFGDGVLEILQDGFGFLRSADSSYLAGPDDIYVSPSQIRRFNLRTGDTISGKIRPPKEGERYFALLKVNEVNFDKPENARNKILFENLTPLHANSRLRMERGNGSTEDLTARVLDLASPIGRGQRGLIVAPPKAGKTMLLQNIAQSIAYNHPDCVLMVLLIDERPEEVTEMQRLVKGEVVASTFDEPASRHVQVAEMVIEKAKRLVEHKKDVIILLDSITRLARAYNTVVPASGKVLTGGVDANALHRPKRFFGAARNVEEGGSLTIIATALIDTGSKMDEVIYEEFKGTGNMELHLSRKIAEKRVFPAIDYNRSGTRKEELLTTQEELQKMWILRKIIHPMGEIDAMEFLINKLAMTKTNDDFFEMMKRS

Usually Kd stands for a measure of binding affinity in units of concentration. Read a high Kd as weaker binding. Substance 3.5 kb linear dsDNA showed a Kd of 12 nM.
